Test results published in publication PMC1287507, “Ankyrin-B Coordinates the Na/K ATPase, Na/Ca Exchanger, and InsP3 Receptor in a Cardiac T-Tubule/SR Microdomain” (PLoS Biology, 2005).
One block for each molecule: values may come before it.

Tests used:
[1] = target: 220-kDa ankyrin-B (endogenous, mouse) (mouse (endogenous in mouse heart and brain)); experiment: co-IP; detergent-soluble lysates of ankyrin-B+/- mouse heart, doubled amount of input lysate, compared with wild-type heart
[2] = target: InsP3R purified from bovine brain cerebellum (bovine, UniProt Q9TU34 1-2709, ^125I-labeled in the saturation binding; biotinylated with NHS-LC-biotin in the reconstitution); experiment: radioligand binding; saturation binding: increasing concentrations of ^125I-labeled protein with glutathione Sepharose-immobilized GST-ankyrin-B membrane-binding domain, 2 h at 25 °C; binding to GST beads subtracted; Scatchard analysis; conditions: both partners purified

loss of co-immunoprecipitation in ankyrin-B+/- heart against wild-type heart [1]: > 60%
Molecule: Na/K ATPase (endogenous, mouse; isoform not told) (from UniProt Q8VDN2 1-1023) (natural protein)

loss of co-immunoprecipitation in ankyrin-B+/- heart against wild-type heart [1]: > 60%
Molecule: inositol 1,4,5-trisphosphate receptor (endogenous, mouse) (from UniProt P11881 1-2749)

loss of co-immunoprecipitation in ankyrin-B+/- heart against wild-type heart [1]: > 60%
Molecule: Na/Ca exchanger 1 (endogenous, mouse) (from UniProt P70414 33-970) (natural protein)

Kd [2]: 3 nM
B1: GST-ankyrin-B membrane-binding domain (domain or fragment)
chain: KSDSNASFLRAARAGNLDKVVEYLKGGIDINTCNQNGLNALHLAAKEGHVGLVQELLGRGSSVDSATKKGNTALHIASLAGQAEVVKVLVKEGANINAQSQNGFTPLYMAAQENHIDVVKYLLENGANQSTATEDGFTPLAVALQQGHNQAVAILLENDTKGKVRLPALHIAARKDDTKSAALLLQNDHNADVQSKMMVNRTTESGFTPLHIAAHYGNVNVATLLLNRGAAVDFTARNGITPLHVASKRGNTNMVKLLLDRGGQIDAKTRDGLTPLHCAARSGHDQVVELLLERGAPLLARTKNGLSPLHMAAQGDHVECVKHLLQHKAPVDDVTLDYLTALHVAAHCGHYRVTKLLLDKRANPNARALNGFTPLHIACKKNRIKVMELLVKYGASIQAITESGLTPIHVAAFMGHLNIVLLLLQNGASPDVTNIRGETALHMAARAGQVEVVRCLLRNGALVDARAREEQTPLHIASRLGKTEIVQLLLQHMAHPDAATTNGYTPLHISAREGQVDVASVLLEAGAAHSLATKKGFTPLHVAAKYGSLDVAKLLLQRRAAADSAGKNGLTPLHVAAHYDNQKVALLLLEKGASPHATAKNGYTPLHIAAKKNQMQIASTLLNYGAETNIVTKQGVTPLHLASQEGHTDMVTLLLDKGANIHMSTKSGLTSLHLAAQEDKVNVADILTKHGADQDAHTKLGYTPLIVACHYGNVKMVNFLLKQGANVNAKTKNGYTPLHQAAQQGHTHIINVLLQHGAKPNATTANGNTALAIAKRLGYISVVDTLKVVTEEVTTTTTTITEKHKLNVPETMTEVLDVSDEEGDDTMTGDGGEYLRPEDLKELGDD
